B1: Hairpin Ribozyme (parent)
chain: GUCCUCUUUCACGUGCGCGUGAAAGAGAGAAGUGAACCAGAGAAACACACGUUGUGGUAUAUUACCUGGUA

Consider 38 variants from the RNAGym collection of RNA variant scans (doi:10.7554/elife.80360).

Variants of B1 are the subject of this data set. As to the kind of experiment: self-cleavage, relative activity (ratio to wild type); higher = more cleavage; co-transcriptional.
Consider GUCCUCGUUCACGUGCGCGUGAAAGAAAGAAGUGAACCAGAGAAACACACGUUGUGGUAUAUUACCUGGUA [U7G G27A], for which the self-cleavage was determined as 0.369.
Under GUCCUCGUUCACGUCCGCGUGAAAGAGAGAAGUGAACCAGAGAAACACACGUUGUGGUAUAUUACCUGGUA [U7G G15C] stands 0.836.
Under GUCCUCGUUCACGUGCGCGUGAAAGAGAGAAGUGAACCAGAGAAACACACGUUGUGGUAUCUUACCUGGUA [U7G A61C] stands 0.261; under GUCCUCGUUCACGUGCGCGUGAAAGAGAGAAGUGUACCAGAGAAACACACGUUGUGGUAUAUUACCUGGUA [U7G A35U], 0.921; under GUCCUCGUUCACGUGCGCGUGAAAGAGAGAAGUGGACCAGAGAAACACACGUUGUGGUAUAUUACCUGGUA [U7G A35G], 0.916.
In the case of GUCCUCGUUCACGUGCGCGUGAAAGAGAGAAGUGAACCAGAGAAACACACGUUGUGGUAUAUUACGUGGUA [U7G C66G], the self-cleavage was 0.0969.
Consider GUCCUCGUUCACGUGCGCGUGAAAGAGAGAAGUGAACCAGAGACACACACGUUGUGGUAUAUUACCUGGUA [U7G A44C], for which the self-cleavage was found to be 0.195.
Under GUCCUCGUUCACUUGCGCGUGAAAGAGAGAAGUGAACCAGAGAAACACACGUUGUGGUAUAUUACCUGGUA [U7G G13U] stands 0.632; under GUCCUCGUUCACGUGCGCGUGAAAGAGAGAAGUGAACCAGAGAAACACAUGUUGUGGUAUAUUACCUGGUA [U7G C50U], 0.371; under GUCCUCGUUCACGUGCGCGUGAAAGAGAGAAGUGAACCAGAGAAACACAAGUUGUGGUAUAUUACCUGGUA [U7G C50A], 0.167.
Under GUCCUCGUUCUCGUGCGCGUGAAAGAGAGAAGUGAACCAGAGAAACACACGUUGUGGUAUAUUACCUGGUA [U7G A11U] stands 0.58.
Under GUCCUCGUUCGCGUGCGCGUGAAAGAGAGAAGUGAACCAGAGAAACACACGUUGUGGUAUAUUACCUGGUA [U7G A11G] stands 0.734; under GUCCUCGUUCACGUGCGCGUGAAAGAGAGAACUGAACCAGAGAAACACACGUUGUGGUAUAUUACCUGGUA [U7G G32C], 0.161; under GUCCUCGUUCACGUGCGCGUGAAAGAGAGAAGUGAAACAGAGAAACACACGUUGUGGUAUAUUACCUGGUA [U7G C37A], 0.335.
In the case of GUCCUCGUUCACGUGCGCGUGAAAGAGAGAAGUGAACCAGAGAAACACACGUUGUGGUUUAUUACCUGGUA [U7G A59U], the self-cleavage was 0.116.
Under GUCCUCGUUCACGUGCGCGUGAAAGAGAGAAGUGAACCAGAGAAACACACGUUGUGGUGUAUUACCUGGUA [U7G A59G] stands 0.0757; under GUCCUCGUUCACGUGCGCGUGAAAGAGAGAAGUGAACUAGAGAAACACACGUUGUGGUAUAUUACCUGGUA [U7G C38U], 0.377.
For GUCCUCGUUCACGUGCGCGUGAAAGAGAGAAGUGAACCAGAGAAACAAACGUUGUGGUAUAUUACCUGGUA [U7G C48A], the self-cleavage was found to be 0.142.
GUCCUCGUUCACGUGCGCGUGAAUGAGAGAAGUGAACCAGAGAAACACACGUUGUGGUAUAUUACCUGGUA [U7G A24U]: the self-cleavage worked out at 0.685.
On to GUCCUCGUUCACGUGCGCGUGAACGAGAGAAGUGAACCAGAGAAACACACGUUGUGGUAUAUUACCUGGUA [U7G A24C], for which the self-cleavage was determined as 0.677.
Consider GUCCUCGUUCACGUGCGCGUGAAAGAGAGAAGUGAACCAGAGGAACACACGUUGUGGUAUAUUACCUGGUA [U7G A43G], for which the self-cleavage came to 0.023.
On to GUCCUCGUUCACGUGCGCGUGAAAGAGAGAAGUGAACCAGAGUAACACACGUUGUGGUAUAUUACCUGGUA [U7G A43U], for which the self-cleavage is 0.123.
Under GUCCUCGUUCACGUGCGCGUGACAGAGAGAAGUGAACCAGAGAAACACACGUUGUGGUAUAUUACCUGGUA [U7G A23C] stands 0.624; under GUCCUCGUUCACGUGCGCGUGAGAGAGAGAAGUGAACCAGAGAAACACACGUUGUGGUAUAUUACCUGGUA [U7G A23G], 0.752.
Under GUCCUCGUUCACGUGCGCGUAAAAGAGAGAAGUGAACCAGAGAAACACACGUUGUGGUAUAUUACCUGGUA [U7G G21A] stands 0.499; under GUCCUCGUUCACGUGCGCGUUAAAGAGAGAAGUGAACCAGAGAAACACACGUUGUGGUAUAUUACCUGGUA [U7G G21U], 0.453.
Under GUCCUCGUUCACGUGCGCGUGAAAGAGAGAAGUGAACCAUAGAAACACACGUUGUGGUAUAUUACCUGGUA [U7G G40U] stands 0.214; under GUCCUCGUUCACGUGCGCGUGAAAGAGAGAAGUGAACCCGAGAAACACACGUUGUGGUAUAUUACCUGGUA [U7G A39C], 0.48.
GUCCUCGUUCACGUGCGCCUGAAAGAGAGAAGUGAACCAGAGAAACACACGUUGUGGUAUAUUACCUGGUA [U7G G19C]: the self-cleavage was determined as 0.592.
Turning to GUCCUCGUUCACGUGCGCGUGUAAGAGAGAAGUGAACCAGAGAAACACACGUUGUGGUAUAUUACCUGGUA [U7G A22U], the self-cleavage worked out at 0.59.
Under GUCCUCGUUCACGUGCGCGUGAAAGGGAGAAGUGAACCAGAGAAACACACGUUGUGGUAUAUUACCUGGUA [U7G A26G] stands 0.821; under GUCCUCGUUCACGUGCGCGUGAAAGAGAGAAGUGAACCAGAGAAAGACACGUUGUGGUAUAUUACCUGGUA [U7G C46G], 0.134; under GUCCUCGUUCACGUGCGCGUGAAAGAGAGAAGUGAACCAGAGAAACACGCGUUGUGGUAUAUUACCUGGUA [U7G A49G], 0.421.
Turning to GUCCUCGUUCACGUGCGCGUGAAAGAGAGAAGUGAGCCAGAGAAACACACGUUGUGGUAUAUUACCUGGUA [U7G A36G], the self-cleavage is 0.828.
Turning to GUCCUCGUUCACGUGCGCGUGAAAGAGAGAAGUGAUCCAGAGAAACACACGUUGUGGUAUAUUACCUGGUA [U7G A36U], the self-cleavage was 0.507.
With GUCCUCGUUCACGUGCGCGUGAAAGAGAGAAGUGAACCAGAAAAACACACGUUGUGGUAUAUUACCUGGUA [U7G G42A], the self-cleavage worked out at 0.218.
Under GUCCUCGUUCACGUGCGCGUGAAAGAGAGCAGUGAACCAGAGAAACACACGUUGUGGUAUAUUACCUGGUA [U7G A30C] stands 0.0485.
Take GUCCUCGUUCACGUGCGAGUGAAAGAGAGAAGUGAACCAGAGAAACACACGUUGUGGUAUAUUACCUGGUA [U7G C18A]: the self-cleavage is 1.01.
